Assay results as given in US20110206671A1, “AXON REGENERATION PROMOTER” (priority 2004, published 2011).

B1: RGM-like protein: rat protein homologous to chicken repulsive guidance molecule, released from RGM-CHO cells by PI-PLC; SEQ ID NO: 4 (protein, listed as Rattus norvegicus)
chain: MGRGAGRSALGLWPTLAFLLCSFPAAISPCKILKCNSEFWSATSSGSHAPASDDVPEFCAALRTYALCTRRTARTCRGDLAYHSAVHGIEDLMSQHNCSKDGPTSQPRVRTLPPAGDSQERSDSPEICHYEKSFHKHSAAPNYTHCGLFGDPHLRTFTDHFQTCKVQGAWPLIDNNYLNVQVTNTPVLPGSAATATSKLTIIFKNFQECVDQKVYQAEMDELPSAFADGSKNGGDKHGANSLKITEKVSGQHVEIQAKYIGTTIVVRQVGRYLTFAVRMPEEVVNAVEDRDSQGLYLCLRGCPLNQQIDFQAFRANAESPRRPAAASPSPVVPETFPYETAVAKCKEKLPVEDLYYQACVFDLLTTGDVNFTLAAYYALEDGKMLHSNKDKLHLFERTRELPGAVAAAAFPLAPEMLPGTVTLLVLLPLFW

Experiments:
[1] = system: cerebellar granule neurons on rat RGM-like protein-expressing CHO cells; experiment: Axon growth assay, coculture of cerebellar granule neurons on RGM-CHO cells; type: cell-based; settings: 10 μM Y27632 added, 24 hours, compared with control CHO cells
Description: Cerebellar granule cells from rat pups at 8 days post-natal (P8) were dissociated by trypsinization (0.25% trypsin in PBS, 37° C., 15 minutes); resuspended in serum-containing medium; triturated; and washed three times with PBS. For the coculture assay, neurons were plated onto a confluent monolayer of RGM-CHO cells or control CHO cells in chamber slides. 10 μM Y27632 (Welfide Corporation, Osaka) was added to the cultures to inhibit ROCK (Rho kinase). The cultures were grown for 24 hours in serum-free DMEM/F12 medium.
(§1) For the soluble RGM assay, confluent monolayers of RGM-CHO cells or control CHO cells were incubated in serum-free DMEM/F12 with or without 2.5 U/mL PI-PLC (phosphatidylinositol-specific phospholipase C, Sigma). After the culture were centrifuged for 10 minutes at 13000 g, floating cells were removed by collecting the supernatant. A portion of the supernatant was subjected to Western blot analysis. Neurons were plated on the conditioned media on poly-L-lysine-coated chamber slides and were incubated for 12 or 24 hours. For the axon assay, the cells were fixed with 4% (w/v) paraformaldehyde and immunostained with a monoclonal antibody that recognizes β-tubulin III protein specifically present in neurons (TuJ1, 1:1000, Covance Research Products, Inc., Denver, USA). The length of the longest neurite for each β-tubulin III-positive neuron was then measured.

[2] = system: cerebellar granule neurons; experiment: Soluble RGM axon growth assay with conditioned media; type: cell-based, rat; settings: medium obtained by PI-PLC treatment of RGM-like protein-expressing CHO cells; versus control CHO medium
Description: as §1

[3] = system: RhoA; experiment: Affinity precipitation of GTP-RhoA; type: cell-based, rat; settings: cerebellar neurons from 7-day postnatal rats; 30 minutes after conditioned medium
Description: Cells were lysed in 50 mM Tris (pH 7.5) containing 1% Triton X-100 (TM), 0.5% sodium deoxycholate, 0.1% SDS, 500 mM NaCl, 10 mM MgCl2, 10 μg/mL leupeptin, and 10 μg/mL aprotinin.
The cell lysate was cleared by centrifugation at 4° C. for 10 minutes×13000 g, and the supernatant was incubated for 45 minutes at 4° C. with 20 μg GST-Rho binding domain of Rhotekin beads (TM, Upstate Biotech). The beads were washed four times with washing buffer (50 mM Tris (pH 7.5) containing 1% Triton X-100 (TM), 150 mM NaCl, 10 mM MgCl2, and 10 μg/mL each of leupeptin and aprotinin). Bound Rho was detected by Western blotting using monoclonal antibody against RhoA (Santa Cruz Biotech, Santa Cruz, Calif., USA).
The RhoA activity in neurons was measured. Conditioned medium was added to cerebellar neurons from 7-day postnatal rats and the RhoA activity was measured after 30 minutes had elapsed (FIG. 6).

| Molecule | axon growth (average length of the longest axon of each neuron) [1] | axon growth of neurons treated with conditioned medium [2] | RhoA activity in neurons (GTP-RhoA) [3] |
| --- | --- | --- | --- |
| CC(N)[C@H]1CC[C@H](C(=O)Nc2ccncc2)CC1 (stereo partly drawn) [Y27632] | axon growth was about the same as for the control |  |  |
| B1 |  | significantly inhibited | Rho activation was confirmed |
